According to publication PMC10201364 (MicrobiologyOpen, 2023):

What was measured:
[1] = molecular target: Ah‐BarR M103N (P ah‐barR promoter, mKate2 reporter) (Acidianus hospitalis, UniProt F4B5V3, M103N); assay: cell-based; type: cell-based; conditions: BS1 M103N; 5 mM glutamine, 20 mg/L naringenin (Figure A7)
Description: (§1) Reporter gene assays were performed as previously described (Bernauw et al., [2022]). pPRC6 and pITC variants (Table 1) were co‐transformed in E. coli MG1655 chemical competent cells using heat shock transformation. Transformant colonies of the Ah‐BarR biosensor strains were picked to inoculate wells of a transparent 96‐well plate (Greiner Bio‐One), each well filled with 200 µL of MOPS EZ Rich Defined medium (Teknova), prepared without the addition of the 5X EZ Supplement, after which the plate was incubated overnight in a ThermoMixer C (Eppendorf) at 30°C and 300 rpm. Next, a black 96‐well plate was filled with a naringenin solution prepared in ethanol (250 mg/L or 2.5 g/L), after which a Breathe‐Easy sealing membrane (Sigma‐Aldrich) was applied and the ethanol was evaporated in a ThermoMixer C (Eppendorf) at 75°C. […] Finally, the plate was sealed again using a Breathe‐Easy sealing membrane (Sigma‐Aldrich).
(§2) Plates were incubated at 30°C and 300 rpm for 40 h in a Synergy H1 microplate reader (BioTek) with measurements of OD600 and fluorescence (excitation wavelength: 588 nm, emission wavelength: 633 nm) being taken every 20 min. The gain was set to 140 for all measurements, except for the measurements with the amino acids (pools and separately), where the gain was set to 150. […] In addition, wells solely containing medium were measured as well to correct for the background signal.
(§3) Reporter expression was analyzed at t = 30 h, when all cultures had reached the stationary phase, by taking into account three subsequent time points (t–1, t, t+1). The corrected FL/OD600 value was calculated for each replicate (n = 4) as follows: FL/ODcor=FLt−1−FLmed,t−1/ODt−1−ODmed,t−1+FLt−FLmed,t/ODt−ODmed,t+FLt+1−FLmed,t+1/ODt+1−ODmed,t+1/3
(§4) Response curves were fitted to a Hill function of the shape P(M)=b+aM^n/θ^n+M^nforaβ−alanine−inducible responseb+aθ^n/θ^n+M^nforaβ−alanine−repressible response according to a previously published procedure (Landry et al., [2018]) with minor adaptations. […] Briefly, lmfit 1.1.0 was used to fit all replicates of a response curve to the appropriate Hill function using the Levenberg‐Marquardt algorithm (Moré, [1978]; Newville et al., [2016]). […] The dynamic range was estimated as μ=a/b .

[2] = molecular target: Ah‐BarR M103T (P ah‐barR promoter, mKate2 reporter) (Acidianus hospitalis, UniProt F4B5V3, M103T); assay: cell-based; type: cell-based; conditions: BS1 M103T; 5 mM glutamine, 20 mg/L naringenin (Figure A7)
Sequence of Ah‐BarR M103T (P ah‐barR promoter, mKate2 reporter) (F4B5V3 entry or part of it M103T): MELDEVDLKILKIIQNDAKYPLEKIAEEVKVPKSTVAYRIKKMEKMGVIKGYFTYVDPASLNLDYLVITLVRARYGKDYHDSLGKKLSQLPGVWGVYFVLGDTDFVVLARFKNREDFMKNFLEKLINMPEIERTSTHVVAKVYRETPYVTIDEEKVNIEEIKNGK
Description: as §1, §2, §3, §4

[3] = tested on: T1, Ah-BarR WT (Acidianus hospitalis), ORF:d4ab5e4b; assay: in-gel Cu-OP footprinting; conditions: 20 mM Tris-HCl pH 8.0, 50 mM NaCl, 0.4 mM EDTA, 0.1 mM DTT, 1 mM MgCl2, 12.5% glycerol, 25 ug/mL salmon sperm DNA, 25 min at 37 C (EMSA)
T1 sequence: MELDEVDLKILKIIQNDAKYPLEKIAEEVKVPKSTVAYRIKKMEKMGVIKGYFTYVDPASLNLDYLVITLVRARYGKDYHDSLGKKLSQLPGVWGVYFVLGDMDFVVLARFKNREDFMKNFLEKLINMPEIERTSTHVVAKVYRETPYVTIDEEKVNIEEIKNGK

[4] = tested on: T2, Ah-BarR trunc (Acidianus hospitalis), ORF:d4ab5e4b; assay: EMSA; conditions: 20 mM Tris-HCl pH 8.0, 50 mM NaCl, 0.4 mM EDTA, 0.1 mM DTT, 1 mM MgCl2, 12.5% glycerol, 25 ug/mL salmon sperm DNA, 25 min at 37 C (EMSA)
T2 sequence: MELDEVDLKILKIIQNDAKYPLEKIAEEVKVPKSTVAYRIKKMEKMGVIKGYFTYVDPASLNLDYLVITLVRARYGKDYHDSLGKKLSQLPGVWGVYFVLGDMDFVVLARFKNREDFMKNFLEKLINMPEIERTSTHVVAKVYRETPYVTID

[5] = tested on: T1, Ah-BarR WT (Acidianus hospitalis), ORF:d4ab5e4b; assay: EMSA; conditions: 20 mM Tris-HCl pH 8.0, 50 mM NaCl, 0.4 mM EDTA, 0.1 mM DTT, 1 mM MgCl2, 12.5% glycerol, 25 ug/mL salmon sperm DNA, 25 min at 37 C (EMSA)
[6] = tested on: Ah-BarR WT (Acidianus hospitalis); assay: EMSA; conditions: no beta-alanine; octamer concentration; 20 mM Tris-HCl pH 8.0, 50 mM NaCl, 0.4 mM EDTA, 0.1 mM DTT, 1 mM MgCl2, 12.5% glycerol, 25 ug/mL salmon sperm DNA, 25 min at 37 C (EMSA)

Sequence of Ah‐BarR M103N (P ah‐barR promoter, mKate2 reporter) (F4B5V3 entry or part of it M103N): as the sequence (F4B5V3 entry or part of it M103T) above, with T103N counted along it

For NC(=O)CC[C@H](N)C(=O)O [glutamine], the “glutamine response of reporter expression” value [1] was “did not lead to the acquisition of a glutamine‐specific response” and the “glutamine response of reporter expression” value [2] was “did not lead to the acquisition of a glutamine‐specific response”.
For “CCTTATACATTTTATCGACGAATAAGTTGAATATACAACTAAATAAAAAGGGATTATCTTGGAAATTATACAGAGACATTCCAAAGCAAGATTTAAACTATTGTACTTTTTACAATAGCTGTCCTAAAATACTTAAATTCCGTCTAAACTACTAGTATCGCATGGATG (double strand) [WT promoter short 168 bp]”, the binding [3] was “binds”.
“CTTTAAGTCTACCTCGTCTAGCTCCATAATATATAATTAGAAGAGGTAATTTAAACCTTATACATTTTATCGACGAATAAGTTGAATATACAACTAAATAAAAAGGGATTATCTTGGAAATTATACAGAGACATTCCAAAGCAAGATTTAAACTATTGTACTTTTTACAATAGCTGTCCTAAAATACTTAAATTCCGTCTAAACTACTAGTATCGCATGGATGAAGATGTCGTTAAATTGGTTAAAGAACATACTTTCGGAACTTGGAAAGTTC (double strand) [WT promoter 274 bp]” was tested, and the binding [4] was “binds”, the Kd [5] was 12 nM and the binding [5] was “binds”.
“CTTTAAGTCTACCTCGTCTAGCTCCATAATATATAATTAGAAGAGGTAATTTAAACCTTATACATTTTATCGACGAATAAGTTGAATATACAATTTAATAAAAAGGGATTATCTTGGAAATTATACAGAGACATTCCAAAGCAAGATTTAAACTATTGTACTTTTTACAATAGCTGTCCTAAAATACTTAAATTCCGTCTAAACTACTAGTATCGCATGGATGAAGATGTCGTTAAATTGGTTAAAGAACATACTTTCGGAACTTGGAAAGTTC (double strand) [Promoter mutant 1 (mut1) 274 bp]” was tested, and the Kd [5] was 31 nM.
“CTTTAAGTCTACCTCGTCTAGCTCCATAATATATAATTAGAAGAGGTAATTTAAACCTTATACATTTTATCGACGAATAAGTTGAATATACAATTTAATAAAAAGGGATTATCTTGGAAATTATATTTAGACATTCCAAAGCAAGATTTAAACTATTGTACTTTTTACAATAGCTGTCCTAAAATACTTAAATTCCGTCTAAACTACTAGTATCGCATGGATGAAGATGTCGTTAAATTGGTTAAAGAACATACTTTCGGAACTTGGAAAGTTC (double strand) [Promoter mutant 2 (mut2) 274 bp]” was tested, and the Kd [5] was 36 nM.
“CTTTAAGTCTACCTCGTCTAGCTCCATAATATATAATTAGAAGAGGTAATTTAAACCTTATACATTTTATCGACGAATAAGTTGAATATACAATTTAATAAAAAGGGATTATCTTGGAAATTATATTTAGACATTCCAAAGCAAGATTTAAACTATTGTACTTTTTATTTTAGCTGTCCTAAAATACTTAAATTCCGTCTAAACTACTAGTATCGCATGGATGAAGATGTCGTTAAATTGGTTAAAGAACATACTTTCGGAACTTGGAAAGTTC (double strand) [Promoter mutant 3 (mut3) 274 bp]” was tested, and the binding [5] was “no binding”.
For WT promoter 274 bp, the Kd [6] was 12 nM.
